Reference: patent US20220143089A1

Columns and labels:
[1] = target: TRAIL death receptor 5 (DR5) (UniProt O14763); test: flow cytometry, mock electroporated primary expanded NK cells (endogenous DR5)
[2] = target: DR5-41BB fusion protein (SEQ ID NO: 4); test: flow cytometry, primary expanded NK cells electroporated with DR5-41BB mRNA; 608 minus 208
[3] = target: DR5-41BB fusion protein (SEQ ID NO: 4); test: flow cytometry, Jurkat T cells transfected with DR5-41BB; DR5-41BB specific signal after mock is set to MFI=0
[4] = target: TRAIL death receptor 5 (DR5) (UniProt O14763); test: flow cytometry, Jurkat T cells stained with anti-DR5 (FMO control 1.29%)
[5] = target: TRAIL death receptor 5 (DR5) (UniProt O14763); test: flow cytometry, mock electroporated Jurkat T cells (endogenous DR5)
[6] = target: DR5-41BB fusion protein (SEQ ID NO: 4); test: flow cytometry, primary expanded NK cells electroporated with DR5-41BB mRNA; signal is endogenous DR5 plus DR5-41BB
[7] = target: DR5-41BB fusion protein (SEQ ID NO: 4); test: flow cytometry, Jurkat T cells transfected with DR5-41BB; signal is endogenous DR5 plus DR5-41BB
[8] = target: DR5-41BB fusion protein (SEQ ID NO: 4); test: cell-based or functional assay

Chain of DR5-41BB fusion protein (SEQ ID NO: 4) (chain, as listed by the source limits assumed): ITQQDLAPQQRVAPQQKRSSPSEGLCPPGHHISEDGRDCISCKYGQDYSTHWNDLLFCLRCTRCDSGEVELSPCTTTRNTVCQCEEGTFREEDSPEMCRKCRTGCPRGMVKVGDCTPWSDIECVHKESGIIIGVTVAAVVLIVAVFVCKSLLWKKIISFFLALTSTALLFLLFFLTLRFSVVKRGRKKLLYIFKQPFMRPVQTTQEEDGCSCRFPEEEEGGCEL

Row | mean MFI (mock background subtracted) [2] [MFI] | mean MFI (mock background subtracted) [3] [MFI] | mean MFI [6] [MFI] | mean MFI [7] [MFI] | Substance | mean MFI [1] [MFI] | percent of cells stained [4] [%] | mean MFI [5] [MFI] | cell death in T cells (Propidium Iodide, flow cytometry, 16 hours, 100 ng/ml TRAIL) [8] [%]
1 | 400 | 1380 | 608 | 2070 | anti-DR5 antibody (Clone: DJR2-4, Source: Biolegend, Cat: 307406) | 208 | 86.8 | 698 | 
2 |  |  |  |  | soluble TRAIL ligand (from UniProt P50591 114-281) |  |  |  | 15
